We go through one molecule from patent publication US20050282181A1 (published 2005).

This assay addresses T1, biotinylated soluble human IL-1RI ectodomain (human, UniProt P14778 18-336, biotinylated with EZ-Link Sulfo-NHS-SS-Biotin, approaching 2 mol biotin/mol receptor).
T1 construct: extracellular domain; also called biotinylated IL-1RI; biotinylated human IL-1RI
T1 sequence (looked up): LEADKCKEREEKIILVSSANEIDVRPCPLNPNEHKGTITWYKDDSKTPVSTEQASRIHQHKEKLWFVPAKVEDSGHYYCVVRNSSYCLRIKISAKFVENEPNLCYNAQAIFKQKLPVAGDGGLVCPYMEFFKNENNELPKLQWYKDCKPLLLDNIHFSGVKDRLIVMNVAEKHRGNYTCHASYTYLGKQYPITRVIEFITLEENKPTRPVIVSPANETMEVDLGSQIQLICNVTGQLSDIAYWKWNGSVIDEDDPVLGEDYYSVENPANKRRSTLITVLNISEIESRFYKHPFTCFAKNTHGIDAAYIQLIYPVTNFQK
Put plainly: SPR, IL-1α binding to biotinylated receptor.

B1: human IL-1α (ligand, UniProt P01583 113-271, looked up)
chain: SAPFSFLSNVKYNFMRIIKYEFILNDALNQSIIRANDQYLTAAALHNLDEAVKFDMGAYKSSKDDAKITVILRISKTQLYVTAQDEDQPVLLKEMPEIPKTITGSETNLLFFWETHGTKNYFTSVAHPNLFIATKQDYWVCLAGGPPSITDFQILENQA
As usually defined, the Kd is a measure of binding affinity in units of concentration. Take B1: the Kd was determined as 1 nM.
